Results published in patent publication US20210063414A1, “METHODS FOR PREVENTING AND/OR TREATING BONE LOSS CONDITIONS BY MODULATING IRISIN” (Dana-Farber Cancer Institute, Inc., priority 2018, published 2021).

Assays:
Assay in all cases: Crosslinking/co-immunoprecipitation/mass spectrometry (TMT quantitative proteomics) to identify irisin receptors
Type in all cases: binding
[1] = target: T1, MLO-Y4 cell surface proteins (Mus musculus, UniProt P52825); conditions: co-precipitated protein Cpt2 (CPT2_MOUSE)
T1 construct: endogenous in cells; host or cells: MLO-Y4
T1 sequence (P52825 26-658): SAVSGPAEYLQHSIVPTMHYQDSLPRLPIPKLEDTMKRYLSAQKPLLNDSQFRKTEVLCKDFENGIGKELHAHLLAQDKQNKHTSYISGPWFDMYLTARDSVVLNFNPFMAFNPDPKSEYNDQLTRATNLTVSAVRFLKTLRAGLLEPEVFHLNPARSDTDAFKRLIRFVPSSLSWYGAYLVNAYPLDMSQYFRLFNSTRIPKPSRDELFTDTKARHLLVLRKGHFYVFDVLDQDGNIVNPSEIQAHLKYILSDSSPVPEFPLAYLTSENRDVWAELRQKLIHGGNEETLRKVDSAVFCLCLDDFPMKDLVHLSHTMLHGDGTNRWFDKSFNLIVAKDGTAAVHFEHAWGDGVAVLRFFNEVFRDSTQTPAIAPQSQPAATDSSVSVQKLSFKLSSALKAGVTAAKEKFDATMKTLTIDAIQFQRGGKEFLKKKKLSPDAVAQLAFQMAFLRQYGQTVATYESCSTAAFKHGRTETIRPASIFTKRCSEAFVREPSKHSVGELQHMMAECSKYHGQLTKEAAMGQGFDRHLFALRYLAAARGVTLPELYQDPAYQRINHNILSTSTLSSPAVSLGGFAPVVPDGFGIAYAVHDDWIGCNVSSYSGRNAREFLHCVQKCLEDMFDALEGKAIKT
Experimental: (§1) MLO-Y4 cells were seeded on 30×150 mm type-I collagen coated dishes as described in cell culture experiment. At 60% cell density, medium was switched to FreeStyle™ 293 Expression medium. After 4 hours incubation, the cells were chilled on ice for 10 minutes, followed by treatment of 10 nM his-tag irisin or his-tag adipsin for 20 minutes. The cells were then incubated with 1.5 mM DTSSP for 30 minutes on ice to do cross-linking, after washing with 15 ml cold PBS twice. The cross-linking was quenched by addition of a final concentration of 20 mM Tris-pH 7.5. The cells were then harvested and homogenized in 1 ml RIPA buffer containing proteaseinhibitor cocktailand phosphatase-inhibitor cocktail. Whole-cell lysates were homogenized by 10 times passages through a 22G needle fitted to a 3 ml syringe. Homogenized samples were rotated gently in cold room for 20 minutes followed by 15,000×g centrifugation for 10 minutes. After addition of a final concentration of 10 mM imidazole, supernatants were incubated with 100 μl Ni-NTA agarose for 1 hour. After centrifugation at 500×g for 1 minute, the supernatants were aspirated and 1 ml cold RIPA buffer containing 10 mM imidazole were added to the agarose. After 10 minutes rotation in cold room, the supernatants were aspirated and 1 ml cold RIPA buffer containing 30 mM imidazole were added to the agarose. After repeating the washing 3 times, 0.8 ml RIPA buffer containing 250 mM imidazole was added and the agarose was gently rotated in a cold room for 20 minutes. After centrifugation at 1000×g for 2 minutes, the supernatants were transferred to 1.5 ml tube and incubated with 100 μl 0.2% sodium deoxycholate and 100 μl 10% trichloroacetic acid in ice for 1 hour. After centrifugation at 12,000×g for 10 minutes at 4° C., the supernatants were removed and 1 ml cold acetone was added to the pellets followed by vortexing for 10 seconds. After one more washing with cold acetone, the pellets were dried at 37° C., and 39 μl PBS and 13 μl 4×NuPAGE LDS were added to the pellets with a final concentration of 5 mM DTT. Solubilized proteins were incubated at 65° C. for 20 minutes followed by incubation with a final concentration of 14 mM iodoacetamide for 45 minutes in the dark. 38 μl samples were loaded to 4-12% gradient SDS-PAGE for separation followed by Coomassie Blue staining. The gels were submitted to quantitative proteomics.
(§2) For in-gel digestions, gels were stained with Coomassie Blue and were excised into 8 equal segments for control and irisin lanes. Gel pieces were destained and dehydrated with 100% acetonitrile, vacuumed dried, and digested in 25 mM HEPES (pH 8.5) with 500 ng sequencing grade trypsin (Promega) and incubated for an overnight at 37° C. (Shevchenko et al. (1996) Anal. Chem. 68:850-858). Digests were treated with 1% formic acid and purified using C18 Stage-Tips as previously described (Rappsilber et al. (2007) Nat. Protoc. 2:1896-1906). Peptides were eluted with 70% acetonitrile and 1% formic acid, then dried using a speedvac. Isobaric labeling of digested peptides was accomplished using 6-plex tandem mass tag (TMT) reagents (Thermo Fisher Scientific, Rockford, Ill.). Reagents, 5.0 mg, were dissolved in 252 μl acetonitrile (ACN) and 5 μl of the solution was added to the digested peptides dissolved in 25 μl of 200 mM HEPES, pH 8.5. After 1 hour at room temperature, the reaction was quenched by adding 1 μl of 5% hydroxylamine. Labeled peptides were combined and acidified prior to C18 Stage-Tips desalting.
(§3) All LC-MS/MS experiments were performed on an Orbitrap Fusion™ Lumos mass spectrometer (Thermo Fisher Scientific, San Jose, Calif., USA) coupled with a Proxeon EASY-nLC™ 1200 LC pump (Thermo Fisher Scientific). Peptides were separated on a 100 μm inner diameter microcapillary column packed with 35 cm of Accucore™ C18 resin (1.8 μm, 100 Å, Thermo Fisher Scientific). […]

[2] = target: T2, MLO-Y4 cell surface proteins (Mus musculus, UniProt P59999); conditions: co-precipitated protein Atpc4 (ARPC4_MOUSE)
T2 construct: endogenous in cells; host or cells: MLO-Y4
Experimental: as §1, §2, §3

[3] = target: T3, MLO-Y4 cell surface proteins (Mus musculus, UniProt Q6NWW9); conditions: TMT ratio, Fndc3b Fibronectin type III domain-containing protein 3B
T3 construct: endogenous in cells; host or cells: MLO-Y4
Experimental: as §1, §2, §3

T3 sequence (Q6NWW9 whole entry, the tested form may be a part): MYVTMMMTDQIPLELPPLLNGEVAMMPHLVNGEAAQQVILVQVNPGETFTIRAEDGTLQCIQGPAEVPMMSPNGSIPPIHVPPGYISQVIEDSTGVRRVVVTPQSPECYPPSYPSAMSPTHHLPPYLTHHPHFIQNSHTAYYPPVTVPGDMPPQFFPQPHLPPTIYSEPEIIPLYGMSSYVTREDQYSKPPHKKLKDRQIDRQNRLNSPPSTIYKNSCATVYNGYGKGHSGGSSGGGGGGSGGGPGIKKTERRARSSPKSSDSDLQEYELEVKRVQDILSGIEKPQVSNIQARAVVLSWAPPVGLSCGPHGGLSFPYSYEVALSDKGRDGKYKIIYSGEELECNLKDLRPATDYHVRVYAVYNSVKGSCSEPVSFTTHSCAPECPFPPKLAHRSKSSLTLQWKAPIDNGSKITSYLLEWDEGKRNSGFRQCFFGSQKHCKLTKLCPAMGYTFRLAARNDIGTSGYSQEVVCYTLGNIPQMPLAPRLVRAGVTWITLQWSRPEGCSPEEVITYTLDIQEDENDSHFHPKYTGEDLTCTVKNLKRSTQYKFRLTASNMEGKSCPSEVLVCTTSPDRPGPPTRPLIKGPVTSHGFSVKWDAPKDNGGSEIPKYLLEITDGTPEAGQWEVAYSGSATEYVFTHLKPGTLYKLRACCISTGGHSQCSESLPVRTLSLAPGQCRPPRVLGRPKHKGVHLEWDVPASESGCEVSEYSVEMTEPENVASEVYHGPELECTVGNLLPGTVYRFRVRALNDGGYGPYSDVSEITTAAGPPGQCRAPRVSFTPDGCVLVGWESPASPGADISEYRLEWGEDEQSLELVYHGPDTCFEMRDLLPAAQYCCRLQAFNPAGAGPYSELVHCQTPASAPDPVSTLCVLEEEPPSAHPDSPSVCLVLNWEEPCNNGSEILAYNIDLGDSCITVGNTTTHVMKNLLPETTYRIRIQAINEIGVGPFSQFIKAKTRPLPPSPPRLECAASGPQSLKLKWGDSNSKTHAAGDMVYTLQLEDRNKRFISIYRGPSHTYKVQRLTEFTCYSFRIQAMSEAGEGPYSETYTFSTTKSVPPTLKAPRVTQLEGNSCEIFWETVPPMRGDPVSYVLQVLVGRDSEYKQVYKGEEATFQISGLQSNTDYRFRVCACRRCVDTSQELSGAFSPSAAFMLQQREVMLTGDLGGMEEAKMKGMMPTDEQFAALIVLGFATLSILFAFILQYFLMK

B1: irisin: secreted cleaved form of FNDC5; recombinant human/mouse irisin with C-terminal his tag produced in HEK293 cells (protein)
chain: DSPSAPVNVTVRHLKANSAVVSWDVLEDEVVIGFAISQQKKDVRMLRFIQEVNTTTRSCALWDLEEDTEYIVHVQAISIQGQSPASEPVLFKTPREAEKMASKNKDEVTMKE
modifications: left off: small tags and cut ends
notes: secreted cleaved form of FNDC5; recombinant human/mouse irisin with C-terminal his tag produced in HEK293 cells
TMT signal-to-noise ratio [1]: 96.8301 | irisin/adipsin TMT signal-to-noise ratio [1]: 0.545 | TMT signal-to-noise ratio [2]: 74.075 | irisin/adipsin TMT signal-to-noise ratio [2]: 0.536 | irsin/adipsin [3]: 2.88
